{"source": "patent US9951373B2", "about": "“Oplophorus-derived luciferases, novel coelenterazine substrates, and methods of use” (Promega Corporation, priority 2010, dated 2018)", "key": {"[1]": {"assay": "Enzyme kinetics of OgLuc variants in E. coli lysates", "format": "biochemical", "conditions": "PBI-3939, E. coli lysates", "experimental": "Using methods known in the art, enzyme kinetic assays measuring luminescence were performed with the lysates of E. coli containing IV and the IV variants 15C1, 9B8, 9F6, and 9A3. […] Two fold serial dilutions of PBI-3939 in the assay buffer described previously in Example 26 were assayed with the diluted lysates. […] Variants 9B8 and 9F6 had higher Km values compared to IV while Km values for the other variants were unchanged.\nLuminescence was measured on a TECAN® INFINITE® F500 luminometer.\nThe enzyme kinetics values were determined for the OgLuc variants as described previously, except luminescence was measured using a GLOMAX® luminometer. Three replicates were used for each variant."}, "[2]": {"assay": "Stability of secreted OgLuc variants in saved media", "format": "physicochemical", "conditions": "secreted variant in saved media", "experimental": "To determine if the secretion signal sequence of OgLuc facilitates its secretion, the OgLuc variants 9B8, V2 and L27V were cloned into pF4Ag containing an N-terminal OgLuc secretion signal sequence. The variants were also cloned into vectors without the secretion signal sequence. CHO or HeLa cells were then plates at 100,000 cells/well in 1 mL F12 media with 10% FBS and 1× sodium pyruvate (CHO cells) or DMEM with 10% FBS and 1× sodium pyruvate (HeLa cells) into 12-well plates and incubated overnight at 37° C., 5% CO2.\nAfter the overnight incubation, the cells were transfected with 1 μg plasmid DNA containing 9B8, V2, or L27V with or without the secretion signal sequence using the TRANSIT®-LT1 transfection reagent (Mirus Bio) and OPTI-MEMO media (Invitrogen). The cells were again incubated overnight at 37° C., 5% CO2.\nAfter the second overnight incubation, the media was removed and saved for analysis. […] To 10 μL of cell lysate or saved media from each sample, 50 μL assay buffer with 40 μM PBI-3939 was added, and luminescence measured as described above.\nTo determine the stability of the secreted variants, 150 μL aliquots of the saved media from each sample was placed at 37° C. or 50° C. The aliquots were then removed at different time points (0, 1, 2, 3, 5, 6, and 7 […]), frozen on dry ice, and kept at −20° C. until assayed. To assay for stability, the media aliquots were thawed to room temperature, and 10 μL of each aliquot was mixed with assay buffer with PBI-3939 (pH 6.0) as described above. Luminescence was measured as above, and the half-life (t50) determined (Table 34)."}, "[3]": {"system": "HEK293 cells", "assay": "Luminescence in sandwich background, HEK293 cells", "format": "cell-based, human", "conditions": "non-sandwich versus sandwich", "experimental": "The PCR library in the Id-OgLuc-HT7 sandwich background was screened for additional variants with increased luminescence compared to 9B8 opt+K33N in sandwich background. Selected variants were then assayed in HEK293 and NIH3T3 cells. […] 1F7 (F) (SEQ ID NOs: 84 and 85) and 15H1 (F) (SEQ ID NOs: 86 and 87) had at least 1.3 fold-increase in luminescence in E. coli. 1F7 (F) was brighter than 9B8 opt+K33N in the sandwich background in HEK293 and NIH3T3 cells.\nThe variants 9B8 opt+K33N+T39T+K43R+Y68D (“V2”; SEQ ID NOs: 92 and 93), 9B8 opt+K33N+L27V+K43R+Y68D (SEQ ID NOs: 339 and 340), 9B8 opt+K33N+L27V+T39T+K43R+S66N (SEQ ID NOs: 341 and 342), and 9B8 opt+K33N+L27V+T39T+K43R+Y68D (“L27V”; SEQ ID NOs: 88 and 89) were subcloned into the Id-OgLuc-HT7 sandwich background as described above and assayed in HEK293 and NIH3T3 cells as described above. The luminescence generated by the sandwiched variants were compared to the luminescence generated by the […] sandwich (SEQ ID NOs: 59 and 60) (Table 38). The L27V sandwich (SEQ ID NOs: 90 and 91) and V2 sandwich (SEQ ID NOs: 94 and 95) had at least 1.3× fold-increase in luminescence in HEK293 and NIH3T3 cells.\nThe sandwich and non-sandwich versions of the variants V2, 9B8 opt+K33N+L27V+K43R+Y68D, 9B8 opt+K33N+L27V+T39T+K43R+S66N, and L27V were assayed in HEK293 and NIH3T3 cells as described in Example 37. The luminescence generated by the non-sandwiched variants was compared to the luminescence generated by the sandwiched variants (Table 39)."}, "[4]": {"molecular_target": "T1, caspase-3 (Homo sapiens, UniProt P42574)", "T1 sequence (P42574 29-175 limits assumed)": "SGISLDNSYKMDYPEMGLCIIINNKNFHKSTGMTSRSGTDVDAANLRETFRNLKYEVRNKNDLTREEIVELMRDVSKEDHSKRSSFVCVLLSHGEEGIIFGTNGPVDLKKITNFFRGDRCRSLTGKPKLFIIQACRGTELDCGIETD", "T1 sequence (P42574 176-277 limits assumed)": "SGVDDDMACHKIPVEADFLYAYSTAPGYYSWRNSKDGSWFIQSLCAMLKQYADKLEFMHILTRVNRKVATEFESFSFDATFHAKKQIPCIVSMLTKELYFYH", "assay": "Bioluminescent caspase-3 assay with L27V variant", "format": "biochemical", "conditions": "luminescence, 3 hrs room temperature", "experimental": "(§1) 2. The L27V variant was used in a bioluminescent assay using a pro-coelenterazine substrate comprising the DEVD caspase-3 cleavage sequence. Purified caspase-3 enzyme (1 mg/mL) in 100 mM MES pH 6 (50 μL) was mixed with 227 nM L27V02 variant and 47 μM PBI-3741 (z-DEVD-coelenterazine-h) in assay buffer (50 μL). Reactions were incubated for 3 hrs at room temperature, and luminescence detected as previously described. The assay with the L27V variant was compared to a firefly luciferase version of the assay, CASPASE-GLO® 3/7-Assay system (Caspase-Glo; Promega Corp.)."}, "[5]": {"system": "caspase-3", "assay": "Bioluminescent caspase-3 assay with L27V variant", "format": "biochemical", "conditions": "luminescence, 3 hrs room temperature", "experimental": "as §1"}}, "data": [{"molecule": "L27V: 9B8 opt+K33N variant with L27V, T39T, K43R, Y68D (SEQ ID NO: 89) (protein) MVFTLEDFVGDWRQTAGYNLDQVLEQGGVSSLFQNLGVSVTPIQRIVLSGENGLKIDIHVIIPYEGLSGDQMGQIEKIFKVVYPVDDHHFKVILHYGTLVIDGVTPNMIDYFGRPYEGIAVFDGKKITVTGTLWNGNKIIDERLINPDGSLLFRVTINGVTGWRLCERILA", "values": [{"measurement": "Km", "setting": "[1]", "value": 13.9, "unit": "µM"}, {"measurement": "Vmax", "setting": "[1]", "value": "190,000,000 RLU/0.5 sec"}, {"measurement": "½ life 37 C.", "setting": "[2]", "value": 17, "unit": "days"}, {"measurement": "½ life 50 C.", "setting": "[2]", "value": 11, "unit": "h"}, {"measurement": "Fold-decrease in luminescence in the presence of sandwich background, HEK 293", "setting": "[3]", "value": 6}, {"measurement": "(+) caspase", "setting": "[4]", "value": "11,532"}, {"measurement": "(−) caspase", "setting": "[5]", "value": 803}]}]}
